In one test the target is GudB6-GltA2B2 (Bacillus subtilis, UniProt O34399+P39812). Put plainly: cryo-EM structure, […] A. The test is classed as binding. The note with it: co-purified.
Test [1] addresses glutamate dehydrogenase GudB (untagged, in B. subtilis NCIB 3610) (B. subtilis (endogenous in strain NCIB 3610)). Briefly: cryo-EM structure.
Test [2] addresses TwinStrep-tagged GltB (B. subtilis) (UniProt O34399). Briefly: mass photometry.
Test [3] deals with recombinant 6X His-tagged GudB (B. subtilis). Briefly: cryo-EM structure.
recombinant 6X His-tagged GudB (B. subtilis), sequence (P50735 whole entry): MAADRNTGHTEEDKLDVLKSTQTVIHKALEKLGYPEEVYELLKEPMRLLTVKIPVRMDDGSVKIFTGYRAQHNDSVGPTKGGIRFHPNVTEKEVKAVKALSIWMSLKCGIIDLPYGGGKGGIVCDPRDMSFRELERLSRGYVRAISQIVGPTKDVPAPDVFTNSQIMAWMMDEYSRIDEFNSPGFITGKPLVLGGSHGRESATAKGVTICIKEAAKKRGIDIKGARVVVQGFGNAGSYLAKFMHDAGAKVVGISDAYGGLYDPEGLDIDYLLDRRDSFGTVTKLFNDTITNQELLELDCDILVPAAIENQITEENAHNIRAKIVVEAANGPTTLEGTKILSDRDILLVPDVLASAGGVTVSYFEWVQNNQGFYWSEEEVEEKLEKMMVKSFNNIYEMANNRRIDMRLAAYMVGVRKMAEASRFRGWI
In test [4] the target is glutamate dehydrogenase GudB (untagged, in B. subtilis NCIB 3610) (B. subtilis (endogenous in strain NCIB 3610)). Put plainly: native MS.
glutamate dehydrogenase GudB (untagged, in B. subtilis NCIB 3610) (B. subtilis (endogenous in strain NCIB 3610)), sequence (P50735 whole entry): as above
For test [5], the target named is recombinant 6X His-tagged GudB (B. subtilis). Put plainly: native MS.
The target in test [6] is recombinant Strep-tagged GudB (B. subtilis). Put plainly: native MS.

Several values for one entry are separate records, joined by “and”; a condition that tells them apart may be missing. Equal entries are not always repeated.

GudB6-GltA2B2, sequence (P39812 22-1520): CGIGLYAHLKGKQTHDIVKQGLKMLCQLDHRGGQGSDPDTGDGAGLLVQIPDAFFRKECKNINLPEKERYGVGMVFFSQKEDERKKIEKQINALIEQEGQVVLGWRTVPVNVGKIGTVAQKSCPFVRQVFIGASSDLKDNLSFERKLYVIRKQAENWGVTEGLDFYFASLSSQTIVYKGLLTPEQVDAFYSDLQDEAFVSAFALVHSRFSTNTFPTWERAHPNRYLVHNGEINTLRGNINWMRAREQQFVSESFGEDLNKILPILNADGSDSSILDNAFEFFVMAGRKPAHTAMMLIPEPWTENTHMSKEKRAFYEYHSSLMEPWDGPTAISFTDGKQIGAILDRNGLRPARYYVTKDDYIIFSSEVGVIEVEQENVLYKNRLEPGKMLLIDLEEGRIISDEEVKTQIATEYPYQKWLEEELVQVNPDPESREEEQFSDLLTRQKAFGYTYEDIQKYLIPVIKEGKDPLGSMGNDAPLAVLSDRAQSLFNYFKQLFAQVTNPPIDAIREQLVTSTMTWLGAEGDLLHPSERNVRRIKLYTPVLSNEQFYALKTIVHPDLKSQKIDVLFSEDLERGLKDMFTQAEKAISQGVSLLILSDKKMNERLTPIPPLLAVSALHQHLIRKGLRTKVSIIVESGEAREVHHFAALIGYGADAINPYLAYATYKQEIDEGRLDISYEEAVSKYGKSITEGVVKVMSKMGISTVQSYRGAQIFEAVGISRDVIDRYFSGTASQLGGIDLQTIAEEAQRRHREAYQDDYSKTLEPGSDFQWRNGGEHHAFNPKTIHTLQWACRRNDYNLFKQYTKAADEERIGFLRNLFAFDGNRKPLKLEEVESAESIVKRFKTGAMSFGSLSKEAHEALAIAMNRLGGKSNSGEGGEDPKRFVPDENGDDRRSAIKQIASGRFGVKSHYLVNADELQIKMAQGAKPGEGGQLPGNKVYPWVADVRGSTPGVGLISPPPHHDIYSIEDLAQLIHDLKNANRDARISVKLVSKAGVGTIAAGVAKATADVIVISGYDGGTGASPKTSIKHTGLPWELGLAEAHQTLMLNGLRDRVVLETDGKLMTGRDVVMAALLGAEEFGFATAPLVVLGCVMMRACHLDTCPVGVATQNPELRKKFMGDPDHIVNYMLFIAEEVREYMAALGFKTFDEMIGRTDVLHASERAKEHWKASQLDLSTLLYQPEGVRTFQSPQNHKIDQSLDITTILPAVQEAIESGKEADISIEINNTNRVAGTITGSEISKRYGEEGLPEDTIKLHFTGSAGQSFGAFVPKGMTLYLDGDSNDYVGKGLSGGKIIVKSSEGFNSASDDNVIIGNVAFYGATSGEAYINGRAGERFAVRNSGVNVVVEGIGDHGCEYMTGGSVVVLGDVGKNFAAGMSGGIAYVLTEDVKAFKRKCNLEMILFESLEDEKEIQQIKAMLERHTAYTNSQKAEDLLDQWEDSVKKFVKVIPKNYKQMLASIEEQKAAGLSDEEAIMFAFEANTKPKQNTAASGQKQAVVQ
GudB6-GltA2B2, sequence (O34399 whole entry): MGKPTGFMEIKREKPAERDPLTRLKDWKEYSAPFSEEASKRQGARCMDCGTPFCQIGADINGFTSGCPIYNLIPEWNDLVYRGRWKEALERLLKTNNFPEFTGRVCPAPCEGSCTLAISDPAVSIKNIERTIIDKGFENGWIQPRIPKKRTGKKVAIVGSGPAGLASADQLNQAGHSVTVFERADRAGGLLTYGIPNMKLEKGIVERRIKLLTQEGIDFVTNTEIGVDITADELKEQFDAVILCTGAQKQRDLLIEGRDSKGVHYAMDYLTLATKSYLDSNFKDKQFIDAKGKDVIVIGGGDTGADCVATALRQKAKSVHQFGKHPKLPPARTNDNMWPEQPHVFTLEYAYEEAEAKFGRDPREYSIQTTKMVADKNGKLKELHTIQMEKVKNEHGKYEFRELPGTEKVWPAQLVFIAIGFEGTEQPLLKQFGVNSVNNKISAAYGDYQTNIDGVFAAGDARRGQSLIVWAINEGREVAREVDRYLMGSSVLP
GudB6-GltA2B2, sequence (A0A0C3GZC9 1-424 partner): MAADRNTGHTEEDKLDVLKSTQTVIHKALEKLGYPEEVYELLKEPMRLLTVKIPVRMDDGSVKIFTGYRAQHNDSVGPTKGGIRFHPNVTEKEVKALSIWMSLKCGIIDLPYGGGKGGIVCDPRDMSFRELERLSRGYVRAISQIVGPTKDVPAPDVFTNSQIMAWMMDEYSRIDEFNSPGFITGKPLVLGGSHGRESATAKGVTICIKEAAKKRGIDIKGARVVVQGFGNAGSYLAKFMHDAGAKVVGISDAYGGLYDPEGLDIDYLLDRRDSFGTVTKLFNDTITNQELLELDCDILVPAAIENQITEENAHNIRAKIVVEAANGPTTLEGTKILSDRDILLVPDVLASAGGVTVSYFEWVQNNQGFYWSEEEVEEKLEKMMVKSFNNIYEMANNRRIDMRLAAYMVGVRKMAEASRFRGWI
TwinStrep-tagged GltB (B. subtilis), sequence (O34399 whole entry): as the sequence (O34399 whole entry) above
glutamate dehydrogenase GudB (untagged, in B. subtilis NCIB 3610) (enzyme), sequence (P50735 whole entry): as the sequence (P50735 whole entry) above
recombinant 6X His-tagged GudB (enzyme), sequence (P50735 whole entry): as above
recombinant Strep-tagged GudB (enzyme), sequence (P50735 whole entry): as above

Take `[S]12[Fe]3[S]4[Fe]1[S]1[Fe]2[S]3[Fe]41` [4Fe-4S cluster]: at GudB6-GltA2B2 (two clusters, site in GltB), the “cryo-EM structure, 2.4 A” value is “unambiguous assignment of two 4Fe-4S clusters in GltB”.
As for `Cc1cc2nc3c(=O)[nH]c(=O)nc-3n(C[C@H](O)[C@H](O)[C@H](O)COP(=O)(O)OP(=O)(O)OC[C@H]3O[C@@H](n4cnc5c(N)ncnc54)[C@H](O)[C@@H]3O)c2cc1C` [FAD], the “cryo-EM structure, 2.4 A” value at GudB6-GltA2B2 (listed among GltAB cofactors in the figure legend only) is “The co-factors in GltAB: FAD, two 4Fe-4S clusters (SF4), 3Fe-4S cluster (F3S) and FMN”.
For the compound `Cc1cc2nc3c(=O)[nH]c(=O)nc-3n(C[C@H](O)[C@H](O)[C@H](O)COP(=O)(O)O)c2cc1C` [FMN], at GudB6-GltA2B2 (site in GltA), the “cryo-EM structure, 2.4 A” value is “a 3Fe-4S clusters and FMN in GltA”.
What is called stoichiometry N is a count of units in the complex or per binding partner. For “glutamate dehydrogenase GudB (untagged, in B. subtilis NCIB 3610) (enzyme)”, the stoichiometry N in test [1] was found to be 6.
Turning to “glutamate synthase subunit GltA (from UniProt P39812 1-1520) (enzyme)”, the percent of counts as GltAB, no ligand in test [2] was 5 % of counts. In addition, the percent of counts as GltAB, with AKG in test [2] was 12 % of counts. Besides, in test [2], the percent of counts as GltAB, with AKG and NADPH is 16 % of counts. Also, the stoichiometry N (GltAB heterodimers per GudB hexamer) in test [1] is 6; in test [3] it was 2 to 4; in test [4], 6; in test [5] it was 3 and 6.
Consider recombinant 6X His-tagged GudB (enzyme), for which, in test [3], the stoichiometry N came out at 6.
recombinant Strep-tagged GudB (enzyme): the stoichiometry N in test [6] amounted to 6.

The values above are taken from article PMC8810680 (Nature chemical biology, 2021).
